Measurements as given in patent US20200024322A1 (Eli Lilly, published 2020).
Numbering of substitutions follows the chain as printed.

T1: human GIP receptor (human, UniProt P48546 22-466)
T1 construct: whole, on cells; Used as crude membranes of stably transfected CHO cells; also called hGIPR
T1 sequence (looked up): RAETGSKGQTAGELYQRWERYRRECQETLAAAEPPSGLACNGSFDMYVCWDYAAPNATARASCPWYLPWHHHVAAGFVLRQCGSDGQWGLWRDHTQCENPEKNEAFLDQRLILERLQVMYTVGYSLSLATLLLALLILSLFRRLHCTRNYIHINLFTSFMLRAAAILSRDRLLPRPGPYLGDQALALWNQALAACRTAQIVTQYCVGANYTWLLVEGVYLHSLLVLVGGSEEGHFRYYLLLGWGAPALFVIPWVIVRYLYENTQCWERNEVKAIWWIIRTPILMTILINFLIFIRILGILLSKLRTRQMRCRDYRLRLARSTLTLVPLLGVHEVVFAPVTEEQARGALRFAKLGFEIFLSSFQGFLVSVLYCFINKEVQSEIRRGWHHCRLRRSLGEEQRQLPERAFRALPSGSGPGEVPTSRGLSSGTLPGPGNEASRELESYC

B1: Example 62 (peptide)
peptide: YXEGTFTSDYSIXLDKKAQXAFIEYLIEGG
modifications: Aib2; αMeL13; K17((2-[2-(2-Amino-ethoxy)-ethoxy]-acetyl)2-(γ-Glu)-CO-(CH2)18-CO2H); Aib20; C-terminal NH2
B2: Example 65 (peptide)
peptide: B1 peptide with K16T
modifications: Aib2; αMeL13; K17((2-[2-(2-Amino-ethoxy)-ethoxy]-acetyl)2-(γ-Glu)-CO-(CH2)18-CO2H); Aib20; C-terminal NH2
B3: Example 63 (peptide)
peptide: B1 peptide with K16E
modifications: Aib2; αMeL13; K17((2-[2-(2-Amino-ethoxy)-ethoxy]-acetyl)2-(γ-Glu)-CO-(CH2)18-CO2H); Aib20; C-terminal NH2
B4: Example 64 (peptide)
peptide: B1 peptide with K16S
modifications: Aib2; αMeL13; K17((2-[2-(2-Amino-ethoxy)-ethoxy]-acetyl)2-(γ-Glu)-CO-(CH2)18-CO2H); Aib20; C-terminal NH2
B5: Example 57 (peptide)
peptide: YXEGTXTSDYSILLDKKAQXAFIEYLIEGGPSSGAPPPS
modifications: Aib2; αMeF6; K17((2-[2-(2-Amino-ethoxy)-ethoxy]-acetyl)2-(γ-Glu)-CO-(CH2)18-CO2H); Aib20; C-terminal NH2
B6: Example 67 (peptide)
peptide: B5 peptide with X6F, F22X
modifications: Aib2; K17((2-[2-(2-Amino-ethoxy)-ethoxy]-acetyl)2-(γ-Glu)-CO-(CH2)18-CO2H); Aib20; αMeF22; C-terminal NH2
B7: Example 115 (peptide)
peptide: B5 peptide with L13X, K16E
modifications: Aib2; αMeF6; αMeL13; K17((2-[2-(2-Amino-ethoxy)-ethoxy]-acetyl)2-(γ-Glu)-CO-(CH2)18-CO2H); Aib20; C-terminal NH2
B8: Example 68 (peptide)
peptide: B5 peptide with X6F, S11X
modifications: Aib2; αMeS11; K17((2-[2-(2-Amino-ethoxy)-ethoxy]-acetyl)2-(γ-Glu)-CO-(CH2)18-CO2H); Aib20; C-terminal NH2
B9: Example 60 (peptide)
peptide: B5 peptide with X6F, L13X, K16X
modifications: Aib2; αMeL13; Aib16; K17((2-[2-(2-Amino-ethoxy)-ethoxy]-acetyl)2-(γ-Glu)-CO-(CH2)18-CO2H); Aib20; C-terminal NH2
B10: Example 3 (peptide)
peptide: B5 peptide with L13X, K16X, A21E, E24X
modifications: Aib2; αMeF(2F)6; αMeL13; Orn16; K17((2-[2-(2-Amino-ethoxy)-ethoxy]-acetyl)2-(γ-Glu)-CO-(CH2)18-CO2H); Aib20; D-Glu24; C-terminal NH2
B11: Example 119 (peptide)
peptide: B5 peptide with Y1F, L13X, K16E
modifications: Aib2; αMeF6; αMeL13; K17((2-[2-(2-Amino-ethoxy)-ethoxy]-acetyl)2-(γ-Glu)-CO-(CH2)18-CO2H); Aib20; C-terminal NH2
B12: Example 125 (peptide)
peptide: B5 peptide with L13X
modifications: Aib2; αMeF6; αMeL13; K17((2-[2-(2-Amino-ethoxy)-ethoxy]-acetyl)2-(γ-Glu)2-CO-(CH2)18-CO2H); Aib20; C-terminal NH2
B13: Example 129 (peptide)
peptide: B5 peptide with Y10L
modifications: Aib2; αMeF6; K17((2-[2-(2-Amino-ethoxy)-ethoxy]-acetyl)2-(γ-Glu)-CO-(CH2)18-CO2H); Aib20; C-terminal NH2
B14: Example 118 (peptide)
peptide: B5 peptide with L13X, K16E, A21E
modifications: Aib2; αMeF(2F)6; αMeL13; K17((2-[2-(2-Amino-ethoxy)-ethoxy]-acetyl)2-(γ-Glu)-CO-(CH2)18-CO2H); Aib20; C-terminal NH2
B15: Example 127 (peptide)
peptide: B5 peptide with Y10I
modifications: Aib2; αMeF6; K17((2-[2-(2-Amino-ethoxy)-ethoxy]-acetyl)2-(γ-Glu)-CO-(CH2)18-CO2H); Aib20; C-terminal NH2
B16: Example 126 (peptide)
peptide: B5 peptide with L13X, G29A
modifications: Aib2; αMeF6; αMeL13; K17((2-[2-(2-Amino-ethoxy)-ethoxy]-acetyl)2-(γ-Glu)-CO-(CH2)18-CO2H); Aib20; C-terminal NH2
B17: Example 116 (peptide)
peptide: B5 peptide with L13X, K16E, A21E
modifications: Aib2; αMeF6; αMeL13; K17((2-[2-(2-Amino-ethoxy)-ethoxy]-acetyl)2-(γ-Glu)-CO-(CH2)18-CO2H); Aib20; C-terminal NH2
B18: Example 128 (peptide)
peptide: B5 peptide with Y10H
modifications: Aib2; αMeF6; K17((2-[2-(2-Amino-ethoxy)-ethoxy]-acetyl)2-(γ-Glu)-CO-(CH2)18-CO2H); Aib20; C-terminal NH2
B19: Example 69 (peptide)
peptide: B5 peptide with L13X
modifications: Aib2; αMeF6; αMeL13; K17((2-[2-(2-Amino-ethoxy)-ethoxy]-acetyl)2-(γ-Glu)-CO-(CH2)18-CO2H); Aib20; C-terminal NH2

Columns and labels:
human GIP receptor = target: T1, human GIP receptor; test: SPA, [125I]-GIP displacement, hGIPR membranes
human glucagon receptor = target: T2, human glucagon receptor (human, UniProt P47871 26-477); test: SPA, [125I]-Gcg displacement, hGcgR membranes
T2 construct: whole, on cells; Used as crude membranes of stably transfected HEK293 cells; also called hGcgR; hGLcgR

human GLP-1 receptor = target: T3, human GLP-1 receptor (human, UniProt P43220 24-463); test: SPA, [125I]-GLP-1 displacement, hGLP-1R membranes
T3 construct: whole, on cells; Used as crude membranes of stably transfected HEK293 cells; also called hGLP1R; hGLP-1R

T2 sequence (P47871 26-477): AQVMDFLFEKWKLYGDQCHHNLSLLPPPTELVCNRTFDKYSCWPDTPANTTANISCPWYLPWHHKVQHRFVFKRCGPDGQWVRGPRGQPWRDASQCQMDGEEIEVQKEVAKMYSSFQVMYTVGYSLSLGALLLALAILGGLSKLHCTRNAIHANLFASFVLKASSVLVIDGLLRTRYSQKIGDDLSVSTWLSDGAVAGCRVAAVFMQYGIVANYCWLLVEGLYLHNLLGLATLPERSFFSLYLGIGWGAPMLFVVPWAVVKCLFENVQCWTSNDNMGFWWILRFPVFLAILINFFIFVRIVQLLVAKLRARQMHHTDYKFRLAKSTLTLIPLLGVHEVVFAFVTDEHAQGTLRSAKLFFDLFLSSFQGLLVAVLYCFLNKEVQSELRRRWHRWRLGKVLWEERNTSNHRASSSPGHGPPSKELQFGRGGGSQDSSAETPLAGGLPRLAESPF

| Binder | Ki (human GIP receptor) [nM] | Ki (human glucagon receptor) [nM] | Ki (human GLP-1 receptor) [nM] |
| --- | --- | --- | --- |
| B1 | 0.0545 | 168 | 2.03 |
| B2 | 0.0643 | 194 | 4.53 |
| B3 | 0.141 | 273 | 7.79 |
| B4 | 0.0866 | 260 | 4.86 |
| B5 | 0.0583 | 26.1 | 3 |
| B6 | 0.061 | 270 | 10.2 |
| B7 | 0.0302 | 9.89 | 3.43 |
| B8 | 0.0243 | 99.2 | 1.58 |
| B9 | 0.0655 | 237 | 9.55 |
| B10 | 0.0458 | 242 | 2.23 |
| B11 | 0.0925 | 30.6 | 9.87 |
| B12 | 0.0624 | 54.4 | 3.19 |
| B13 | 0.0278 | 14.9 | 1 |
| B14 | 0.0859 | 53 | 6.1 |
| B15 | 0.126 | 43.6 | 1.86 |
| B16 | 0.0644 | 101 | 1.46 |
| B17 | 0.0597 | 137 | 6.8 |
| B18 | 0.0625 | 433 | 1.88 |
| B19 | 0.03 | 22.1 | 1.22 |
